Laboratory results published in US20230192860A1 (Bristol-Myers Squibb, published 2023).

Legend:
hVISTA-ECD 6-His tag [1] = biological target: T1, hVISTA-ECD 6-His tag (human, UniProt Q9H7M9 33-193); assay: SPR 37 C, Ab on Protein A, pH 7.4
T1 construct: also called monovalent hVISTA-ECD; human VISTA

hVISTA-ECD 6-His tag [2] = biological target: T1, hVISTA-ECD 6-His tag; assay: SPR 37 C, Ab on Protein A, pH 6.0

T1 sequence (Q9H7M9 other isoform, or with tags, fused parts or gaps limits assumed): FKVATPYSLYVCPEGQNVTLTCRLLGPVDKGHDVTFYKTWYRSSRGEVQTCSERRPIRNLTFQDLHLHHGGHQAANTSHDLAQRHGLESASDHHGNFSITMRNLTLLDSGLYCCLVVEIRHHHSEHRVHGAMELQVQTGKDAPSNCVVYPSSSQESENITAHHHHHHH

| Binder | Kd (hVISTA-ECD 6-His tag [1]) [nM] | koff (hVISTA-ECD 6-His tag [1]) [s⁻¹] | kon (hVISTA-ECD 6-His tag [1]) [M⁻¹ s⁻¹] | Kd (hVISTA-ECD 6-His tag [2]) [nM] | koff (hVISTA-ECD 6-His tag [2]) [s⁻¹] | kon (hVISTA-ECD 6-His tag [2]) [M⁻¹ s⁻¹] |
| --- | --- | --- | --- | --- | --- | --- |
| P1-077841 (P1-068744 E100S) (antibody, V domains shown) VH: QVQLVESGGGVVQPGRSLRLSCAASGFTFSEYAMHWVRQAPGKGLEWVAHIWYDGSNKYEADSVKGRFTISRDNSKNTLYLQMNSLRAEDTAVYYCARDSGFYSSYYFDEWGQGTLVTVSS VL: EIVLTQSPATLSLSPGERATLSCRASQSVSSSYLAWYQQKPGQAPRLLIYDASNRATGIPARFSGSGSGTDFTLTISSLEPEDFATYYCQQYNSYPYTFGQGTKLEIK | 910 | 0.3 | 330000 | 200 | 0.11 | 520000 |
| P1-077843 (P1-068744 E102Y) (antibody, V domains shown) VH: QVQLVESGGGVVQPGRSLRLSCAASGFTFSEYAMHWVRQAPGKGLEWVAHIWYDGSNKYEADSVKGRFTISRDNSKNTLYLQMNSLRAEDTAVYYCARDSGFYESYYFDYWGQGTLVTVSS VL: EIVLTQSPATLSLSPGERATLSCRASQSVSSSYLAWYQQKPGQAPRLLIYDASNRATGIPARFSGSGSGTDFTLTISSLEPEDFATYYCQQYNSYPYTFGQGTKLEIK | 2000 | 0.034 | 18000 | 33 | 0.0048 | 150000 |
| P1-077845 (P1-068744 E31S H50I) (antibody, V domains shown) VH: QVQLVESGGGVVQPGRSLRLSCAASGFTFSSYAMHWVRQAPGKGLEWVAIIWYDGSNKYEADSVKGRFTISRDNSKNTLYLQMNSLRAEDTAVYYCARDSGFYESYYFDEWGQGTLVTVSS VL: EIVLTQSPATLSLSPGERATLSCRASQSVSSSYLAWYQQKPGQAPRLLIYDASNRATGIPARFSGSGSGTDFTLTISSLEPEDFATYYCQQYNSYPYTFGQGTKLEIK | 14 | 0.0038 | 280000 | 1.7 | 0.002 | 1.2e+06 |
| P1-077847 (P1-068744 H50I E59Y) (antibody, V domains shown) VH: QVQLVESGGGVVQPGRSLRLSCAASGFTFSEYAMHWVRQAPGKGLEWVAIIWYDGSNKYYADSVKGRFTISRDNSKNTLYLQMNSLRAEDTAVYYCARDSGFYESYYFDEWGQGTLVTVSS VL: EIVLTQSPATLSLSPGERATLSCRASQSVSSSYLAWYQQKPGQAPRLLIYDASNRATGIPARFSGSGSGTDFTLTISSLEPEDFATYYCQQYNSYPYTFGQGTKLEIK | 29 | 0.0035 | 120000 | 2.7 | 0.0032 | 1.2e+06 |
| P1-077849 (P1-068744 E59Y E100S) (antibody, V domains shown) VH: QVQLVESGGGVVQPGRSLRLSCAASGFTFSEYAMHWVRQAPGKGLEWVAHIWYDGSNKYYADSVKGRFTISRDNSKNTLYLQMNSLRAEDTAVYYCARDSGFYSSYYFDEWGQGTLVTVSS VL: EIVLTQSPATLSLSPGERATLSCRASQSVSSSYLAWYQQKPGQAPRLLIYDASNRATGIPARFSGSGSGTDFTLTISSLEPEDFATYYCQQYNSYPYTFGQGTKLEIK | 6600 | 0.35 | 53000 | 220 | 0.11 | 500000 |
| P1-077851 (P1-068744 E100S E102Y) (antibody, V domains shown) VH: QVQLVESGGGVVQPGRSLRLSCAASGFTFSEYAMHWVRQAPGKGLEWVAHIWYDGSNKYEADSVKGRFTISRDNSKNTLYLQMNSLRAEDTAVYYCARDSGFYSSYYFDYWGQGTLVTVSS VL: EIVLTQSPATLSLSPGERATLSCRASQSVSSSYLAWYQQKPGQAPRLLIYDASNRATGIPARFSGSGSGTDFTLTISSLEPEDFATYYCQQYNSYPYTFGQGTKLEIK | 2200 | 0.3 | 150000 | 220 | 0.085 | 380000 |
| P1-077853 (P1-068744 E31S E102Y) (antibody, V domains shown) VH: QVQLVESGGGVVQPGRSLRLSCAASGFTFSSYAMHWVRQAPGKGLEWVAHIWYDGSNKYEADSVKGRFTISRDNSKNTLYLQMNSLRAEDTAVYYCARDSGFYESYYFDYWGQGTLVTVSS VL: EIVLTQSPATLSLSPGERATLSCRASQSVSSSYLAWYQQKPGQAPRLLIYDASNRATGIPARFSGSGSGTDFTLTISSLEPEDFATYYCQQYNSYPYTFGQGTKLEIK | 1200 | 0.024 | 21000 | 18 | 0.0019 | 110000 |
